Source: patent US8951758B2, “GH61 glycoside hydrolase protein variants and cofactors that enhance GH61 activity” (Codexis, Inc., priority 2011, dated 2015)

How the values were obtained:
[1] = system: pretreated corn stover (PCS); test: Supplementation of CF-416 whole cellulase broth with single purified enzymes, saccharification of pretreated corn stover; assay type: biochemical; details: 0.4% single enzyme added to 0.5% CF-416 whole cellulase broth base; for Fold Improvement Over Whole Cellulase Broth Tested on PCS: 74 g/L glucan, pH 5.0, 55° C., 50 μM copper
Protocol: (§1) In this Example, M. thermophila-produced and purified GH61a, GH61p, GH61f, GH61n, CBH1a, CBH2b, AXE3, FAE, and Xyl3, were used to supplement the activity present in culture broths (i.e., “whole broth cellulase base”) of the M. thermophila strain CF-416 prepared using standard methods known in the art. The broth cellulase base was fixed to 0.5% protein and the single purified enzyme was added at 0.4% (wt added protein/wt glucan) to the saccharification reactions. The whole cellulase broth base and individual enzymes were characterized by standard BCA assays for total protein quantification.
(§2) The saccharification reactions were carried out at 74 g/L glucan load of pretreated wheat straw (PWS) or pretreated corn stover (PCS) at pH 5.0, 55° C. at 950 rpm in the presence of 50 μM copper in high throughput (HTP) 96 deep well plates. Glucose analysis was carried out by the glucose oxidase assay as described above. In each case, the fold improvement was calculated using the formula Fold Improvement=[Total Glucose Production with addition of 0.4% single enzyme to the whole cellulase broth base]/[glucose production from the 0.5% whole cellulase broth base]. In this Table, the fold improvements were ranked from 0 to 3; fold improvements less than 1.2× are indicated by “0,” fold improvements of >1.2 to <1.5 are indicated by “1,” fold improvements of ≧1.5× to <1.7× improvements are indicated by “2,” and fold improvements ≧1.7 are indicated by “3.”

[2] = system: pretreated wheat straw (PWS); test: Supplementation of CF-416 whole cellulase broth with single purified enzymes, saccharification of pretreated wheat straw; assay type: biochemical; details: 0.4% single enzyme added to 0.5% CF-416 whole cellulase broth base; for Fold Improvement Over Whole Cellulase Broth Tested on PWS: 74 g/L glucan, pH 5.0, 55° C., 50 μM copper
Protocol: as §1, §2

Molecule	Fold Improvement Over Whole Cellulase Broth Tested on PCS [1]	Fold Improvement Over Whole Cellulase Broth Tested on PWS [2]	improvement over whole cellulase broth on PCS, in words [1]	improvement over whole cellulase broth on PWS, in words [2]
AXE3: wild-type M. thermophila acetylxylan esterase (SEQ ID NO:167) (protein, listed as Myceliophthora thermophila) MKLLGKLSAALALAGSRLAAAHPVFDELMRPTAPLVRPRAALQQVTNFGSNPSNTKMFIYVPDKLAPNPPIIVAIHYCTGTAQAYYSGSPYARLADQKGFIVIYPESPYSGTCWDVSSRAALTHNGGGDSNSIANMVTYTLEKYNGDASKVFVTGSSSGAMMTNVMAAAYPELFAAGIAYSGVPAGCFYSQSGGTNAWNSSCANGQINSTPQVWAKMVFDMYPEYDGPRPKMQIYHGSADGTLRPSNYNETIKQWCGVFGFDYTRPDTTQANSPQAGYTTYTWGEQQLVGIYAQGVGHTVPIRGSDDMAFFGL	0 (fold improvements less than 1.2×)	1 (fold improvements of >1.2 to <1.5)	–	–
GH61n: M. thermophila GH61n (SEQ ID NO:62; alternative SEQ ID NO:64) (protein, listed as Myceliophthora thermophila) MTKNAQSKQGVENPTSGDIRCYTSQTAANVVTVPAGSTIHYISTQQINHPGPTQYYLAKVPPGSSAKTFDGSGAVWFKISTTMPTVDSNKQMFWPGQNTYETSNTTIPANTPDGEYLLRVKQIALHMASQPNKVQFYLACTQIKITGGRNGTPSPLVALPGAYKSTDPGILVDIYSMKPESYQPPGPPVWRG	1 (fold improvements of >1.2 to <1.5)	1 (fold improvements of >1.2 to <1.5)	–	–
FAE: wild-type M. thermophila ferulic acid esterase (SEQ ID NO:170) (protein, listed as Myceliophthora thermophila) MISVPALALALLAAVQVVESASAGCGKAPPSSGTKSMTVNGKQRQYILQLPNNYDANKAHRVVIGYHWRDGSMNDVANGGFYDLRSRAGDSTIFVAPNGLNAGWANVGGEDITFTDQIVDMLKNDLCVDETQFFATGWSYGGAMSHSVACSRPDVFKAVAVIAGAQLSGCAGGTTPVAYLGIHGAADNVLPIDLGRQLRDKWLQTNGCNYQGAQDPAPGQQAHIKTTYSCSRAPVTWIGHGGGHVPDPTGNNGVKFAPQETWDFFDAAVGAAGAQSPMT	1 (fold improvements of >1.2 to <1.5)	1 (fold improvements of >1.2 to <1.5)	–	–
EG1b: Wild-type EG1b endoglucanase (SEQ ID NO:110) (protein, listed as Myceliophthora thermophila) MGQKTLQGLVAAAALAASVANAQQPGTFTPEVHPTLPTWKCTTSGGCVQQDTSVVLDWNYRWFHTEDGSKSCITSSGVDRTLCPDEATCAKNCFVEGVNYTSSGVETSGSSLTLRQFFKGSDGAINSVSPRVYLLGGDGNYVVLKLLGQELSFDVDVSSLPCGENAALYLSEMDATGGRNEYNTGGAEYGSGYCDAQCPVQNWNNGTLNTGRVGSCCNEMDILEANSKAEAFTPHPCIGNSCDKSGCGFNAYARGYHNYWAPGGTLDTSRPFTMITRFVTDDGTTSGKLARIERVYVQDGKKVPSAAPGGDVITADGCTSAQPYGGLSGMGDALGRGMVLALSIWNDASGYMNWLDAGSNGPCSDTEGNPSNILANHPDAHVVLSNIRWGDIGSTVDTGDGDNNGGGPNPSSTTTATATTTSSGPAEPTQTHYGQCGGKGWTGPTRCETPYTCKYQNDWYSQCL	–	–	did not show any improvement	did not show any improvement
GH61f: M. thermophila GH61f (SEQ ID NO:29) (protein, listed as Myceliophthora thermophila) MKSFTLTTLAALAGNAAAHATFQALWVDGVDYGAQCARLPASNSPVTDVTSNAIRCNANPSPARGKCPVKAGSTVTVEMHQQPGDRSCSSEAIGGAHYGPVMVYMSKVSDAASADGSSGWFKVFEDGWAKNPSGGSGDDDYWGTKDLNSCCGKMNVKIPADLPSGDYLLRAEALALHTAGSAGGAQFYMTCYQLTVTGSGSASPPTVSFPGAYKATDPGILVNIHAPLSGYTVPGPAVYSGGSTKKAGSACTGCESTCAVGSGPTATVSQSPGSTATSAPGGGGGCTVQKYQQCGGQGYTGCTNCASGSTCSAVSPPYYSQCV	1 (fold improvements of >1.2 to <1.5)	1 (fold improvements of >1.2 to <1.5)	–	–
CBH2b: wild-type M. thermophila CBH2b (SEQ ID NO:137) (protein, listed as Myceliophthora thermophila) MAKKLFITAALAAAVLAAPVIEERQNCGAVWTQCGGNGWQGPTCCASGSTCVAQNEWYSQCLPNSQVTSSTTPSSTSTSQRSTSTSSSTTRSGSSSSSSTTPPPVSSPVTSIPGGATSTASYSGNPFSGVRLFANDYYRSEVHNLAIPSMTGTLAAKASAVAEVPSFQWLDRNVTIDTLMVQTLSQVRALNKAGANPPYAAQLVVYDLPDRDCAAAASNGEFSIANGGAANYRSYIDAIRKHIIEYSDIRIILVIEPDSMANMVTNMNVAKCSNAASTYHELTVYALKQLNLPNVAMYLDAGHAGWLGWPANIQPAAELFAGIYNDAGKPAAVRGLATNVANYNAWSIASAPSYTSPNPNYDEKHYIEAFSPLLNSAGFPARFIVDTGRNGKQPTGQQQWGDWCNVKGTGFGVRPTANTGHELVDAFVWVKPGGESDGTSDTSAARYDYHCGLSDALQPAPEAGQWFQAYFEQLLTNANPPF	1 (fold improvements of >1.2 to <1.5)	1 (fold improvements of >1.2 to <1.5)	–	–
GH61p: M. thermophila GH61p (SEQ ID NO:70; alternative SEQ ID NO:73) (protein, listed as Myceliophthora thermophila) MKLTSSLAVLAAAGAQAHYTFPRAGTGGSLSGEWEVVRMTENHYSHGPVTDVTSPEMTCYQSGVQGAPQTVQVKAGSQFTFSVDPSIGHPGPLQFYMAKVPSGQTAATFDGTGAVWFKIYQDGPNGLGTDSITWPSAGKTEVSVTIPSCIEDGEYLLRVEHTPLPTAPAAQNRARSSPSPAAYKATDPGILFQLYWPIPTEYINPGPAPVSC	3 (fold improvements ≧1.7)	2 (fold improvements of ≧1.5× to <1.7×)	greatest benefit	–
beta-xylosidase: wild-type M. thermophila beta-xylosidase (SEQ ID NO:164) (protein, listed as Myceliophthora thermophila) MFFASLLLGLLAGVSASPGHGRNSTFYNPIFPGFYPDPSCIYVPERDHTFFCASSSFNAFPGIPIHASKDLQNWKLIGHVLNRKEQLPRLAETNRSTSGIWAPTLRFHDDTFWLVTTLVDDDRPQEDASRWDNIIFKAKNPYDPRSWSKAVHFNFTGYDTEPFWDEDGKVYITGAHAWHVGPYIQQAEVDLDTGAVGEWRIIWNGTGGMAPEGPHIYRKDGWYYLLAAEGGTGIDHMVTMARSRKISSPYESNPNNPVLTNANTTSYFQTVGHSDLFHDRHGNWWAVALSTRSGPEYLHYPMGRETVMTAVSWPKDEWPTFTPISGKMSGWPMPPSQKDIRGVGPYVNSPDPEHLTFPRSAPLPAHLTYWRYPNPSSYTPSPPGHPNTLRLTPSRLNLTALNGNYAGADQTFVSRRQQHTLFTYSVTLDYAPRTAGEEAGVTAFLTQNHHLDLGVVLLPRGSATAPSLPGLSSSTTTTSSSSSRPDEEEEREAGEEEEEGGQDLMIPHVRFRGESYVPVPAPVVYPIPRAWRGGKLVLEIRACNSTHFSFRVGPDGRRSERTVVMEASNEAVSWGFTGTLLGIYATSNGGNGTTPAYFSDWRYTPLEQFRD	–	–	did not show any improvement	did not show any improvement
